We go through two sequences from paper PMC12632272.

In data set [1] the target is T1, CRP (cAMP receptor protein) (Escherichia coli ATCC 25922) (UniProt P0ACJ8).
T1 sequence: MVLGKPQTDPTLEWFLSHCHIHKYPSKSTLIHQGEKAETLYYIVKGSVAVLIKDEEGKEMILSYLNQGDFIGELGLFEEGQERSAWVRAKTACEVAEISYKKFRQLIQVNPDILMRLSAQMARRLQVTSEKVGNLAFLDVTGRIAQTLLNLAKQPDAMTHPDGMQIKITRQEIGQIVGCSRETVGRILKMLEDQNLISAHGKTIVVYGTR
The experiment in a line: EMSA. The following applies: EMSA: 20 mM Tris (pH not stated), 10 mM MgCl2, 0.1 mM EDTA, 100 mM KCl, 200 uM cAMP, room temperature 15 min; 5% gel, 0.3x TBE, 150 V, 20 C.

In data set [2] the target is T1, CRP (cAMP receptor protein) (Escherichia coli ATCC 25922). The experiment in a line: competition. The following applies: EMSA: 20 mM Tris (pH not stated), 10 mM MgCl2, 0.1 mM EDTA, 100 mM KCl, 200 uM cAMP, room temperature 15 min; 5% gel, 0.3x TBE, 150 V, 20 C. (A gel shift assay detects complexes by their altered migration in electrophoresis.)

Take “CGCCTAAGTTTGCCCGTAATAATTCCCCGTGCAGTACTATTGTTGCGACATAACAACATGAATTACATGGTAATAATAGATGTTTTCCTCTGCTGATTCCTGTAAAGATCATGACTCCATACGACATCATTTTTAATATTATACAGTTCAAAAAATCTACATGTGTCACAAATAATTTTACATTTGATAATGTATAGTTGTCACATGACAAGTTGATTATCATTCTGTGTAGACAAGGAGAACTGTTATGACGGAT (double strand) [P1/2 DHAP shunt promoter fragment]”: the binding result in data set [1] is given as “binds”.
As to “CGCCTAAGTTTGCCCGTAATAATTCCCCGTGCAGTACTATTGTTGCGACATAACAACATGAATTACATGGTAATAATAGATGTTTTCCTCTGCTGATTCCTGTAAAGATCATGACTCCATACGACATCATTTTTAATATTATACAGTTCAAAAAATCTACATGTGTCACAAATAATTTTACATTTGATAATGTATAGTTGTCACATGACAAGTTGATTATCATTCTGTGTAGACAAGGAGAACTGTTATGACGGAT (double strand) [P1/2 unlabeled competitor]”, in data set [2], the binding result was “binds”.
